Measured values published in patent US20240309109A1.
pKd: −log10 of the molar value.

Target: human CD38 on cells (human) (UniProt P28907)
Assay: FACS Scatchard, IgG1 on Raji cells

- pKd: 8.08
Substance: Chimeric OKT10 (antibody)
